# Data: paper PMC7544431 (Nature, 2020)
# B1: human MICU2 (subunit of the purified uniplex) (natural protein, UniProt Q8IYU8 23-434, looked up)
# chain: AVSRQAVRSPGPLAAAVAGAALAGAGAAWHHSRVSVAARDGSFTVSAQKNVEHGIIYIGKPSLRKQRFMQFSSLEHEGEYYMTPRDFLFSVMFEQMERKTSVKKLTKKDIEDTLSGIQTAGCGSTFFRDLGDKGLISYTEYLFLLTILTKPHSGFHVAFKMLDTDGNEMIEKREFFKLQKIISKQDDLMTVKTNETGYQEAIVKEPEINTTLQMRFFGKRGQRKLHYKEFRRFMENLQTEIQEMEFLQFSKGLSFMRKEDFAEWLLFFTNTENKDIYWKNVREKLSAGESISLDEFKSFCHFTTHLEDFAIAMQMFSLAHRPVRLAEFKRAVKVATGQELSNNILDTVFKIFDLDGDECLSHEEFLGVLKNRMHRGLWVPQHQSIQEYWKCVKKESIKGVKEVWKQAGKGLF
# modifications: disulfide to MICU1 (C413 of MICU2 and C463 of MICU1 in range)
# B2: human MCU (subunit of the purified uniplex) (natural protein, UniProt Q8NE86 51-351, looked up)
# chain: VHQRIASWQNLGAVYCSTVVPSDDVTVVYQNGLPVISVRLPSRRERCQFTLKPISDSVGVFLRQLQEEDRGIDRVAIYSPDGVRVAASTGIDLLLLDDFKLVINDLTYHVRPPKRDLLSHENAATLNDVKTLVQQLYTTLCIEQHQLNKERELIERLEDLKEQLAPLEKVRIEISRKAEKRTTLVLWGGLAYMATQFGILARLTWWEYSWDIMEPVTYFITYGSAMAMYAYFVMTRQEYVYPEARDRQYLLFFHKGAKKSRFDLEKYNQLKDAIAQAEMDLKRLRDPLQVHLPLRQIGEKD
# Legend:
# cryo-EM structure [1] = molecular target: the molecule itself; assay: cryo-EM structure
# cryo-EM structure [2] = molecular target: the molecule itself; assay: cryo-EM structure; remark: listed apart in the source
Protein,binding result (cryo-EM structure [1]),stoichiometry N (cryo-EM structure [2])
B1,binds,–
B2,–,4
